To fix the notation:
B1: Azoarcus group I ribozyme (parent)
chain: GUGCCUUGCGCCGGGAAACCACGCAAGGGAUGGUGUCAAAUUCGGCGAAACCUAAGCGCCCGCCCGGGCGUAUGGCAACGCCGAGCCAAGCUUCGGCGCCUGCGCCGAUGAAGGUGUAGAGACUAGACGGCACCCACCUAAGGCAAACGCUAUGGUGAAGGCAUAGUCCAGGGAGUGGCGAAAGUCACACAAACCGG

In the data set the parent is B1. In words: reverse-splicing fitness (ratio to wild type); higher = more active; in vitro selection; Mg2+ level not given. In outline:
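An in vitro group I ribozyme library with randomized positions was T7-transcribed and gel-purified. In triplicate, 10 pmol RNA in EPPS pH 7.5 was reacted with 50 pmoles of a 30-nt RNA substrate for 1 h at 37 °C across several added MgCl2 levels (1–48 mM), then stopped with EDTA. Products were reverse transcribed from a substrate-complementary primer, PCR-amplified and sequenced (HiSeq 4000). Fitness is a variant's read proportion after selection over that before, normalised to wild type.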
Regarding C82G A111C A120U A145U C150A C169U U176G, the reverse-splicing fitness came to 0.00243. Regarding C82G A111C A120U A145U C150G C169G U176A, the reverse-splicing fitness was 0.00287. For C82G A111C A120U A145U C150G C169G U176C the value was 0.00317; for C82G A111C A120U A145U C150G C169G U176G, 0.00242.

For the variant C82G A111C A120G A145U C150U C169G, the reverse-splicing fitness was 0.0113. For C82G A111C A120G A145U C150U C169A the value was 0.0101.

For C82G A111C A120G A145U C150U C169U, the reverse-splicing fitness amounted to 0.00896. For C82G A111C A120U A145C C150A C169A U176A the value was 0.00209; for C82G A111C A120U A145C C150A C169A U176G, 0.00281. For C82G A111C A120U A145C C150A C169A U176C the value was 0.00225; for C82G A111C A120U A145G C150G C169U, 0.00758. Consider C82G A111C A120U A145G C150G C169G, for which the reverse-splicing fitness amounted to 0.00703. Take C82G A111C A120U A145G C150G C169A: the reverse-splicing fitness was 0.00854. Then C82G A111C A120U A145U C169U U176A, with 0.00319.

For the variant C82G A111C A120U A145U C169U U176G, the reverse-splicing fitness was determined as 0.00187. Then C82G A111C A120U A145U C169U U176C, with 0.00318; and C82G A111C A120U A145G C150G U176C, with 0.009; and C82G A111C A120U A145G C150G U176G, with 0.00447. Then C82G A111C A120U A145G C150G U176A, with 0.00628; and C82G A111C A120U A145G C150A C169A U176G, with 0.0032. As for C82G A111C A120U A145G C150A C169A U176C, the reverse-splicing fitness was 0.00453.

Take C82G A111C A120U A145G C150A C169A U176A: the reverse-splicing fitness amounted to 0.00791.

For C82G A111C A120U A145C C150A U176G, the reverse-splicing fitness was determined as 0.00247. For the variant C82G A111C A120U A145C C150A U176A, the reverse-splicing fitness stood at 0.00374. As to C82G A111C A120U A145C C150A U176C, the reverse-splicing fitness was 0.00361. Then C82G A111C A120U A145U C150A C169G U176A, with 0.00297; and C82G A111C A120U A145U C150A C169G U176G, with 0.00223. As to C82G A111C A120U A145U C150A C169G U176C, the reverse-splicing fitness was 0.00248.

Regarding C82G A111C A120G A145U C169G U176G, the reverse-splicing fitness turned out to be 0.00458.

As for C82G A111C A120G A145U C169G U176C, the reverse-splicing fitness was 0.0132.

For the variant C82G A111C A120G A145U C169G U176A, the reverse-splicing fitness was determined as 0.0117. On to C82G A111C A120U A145U C169A U176G, for which the reverse-splicing fitness stood at 0.00195. As to C82G A111C A120U A145U C169A U176C, the reverse-splicing fitness was found to be 0.00242. For C82G A111C A120U A145U C169A U176A the value was 0.00261; for C82G A111C A120U A145U C150A C169A U176G, 0.00195; for C82G A111C A120U A145U C150A C169A U176A, 0.00336. Then C82G A111C A120U A145U C150A C169A U176C, with 0.00267. For C82G A111C A120U A145C C150A the value was 0.00458; for C82G A111C A120U A145C C150U, 0.0115. For the variant C82G A111C A120U A145C C150G, the reverse-splicing fitness is 0.008.

Turning to C82G A111C A120U A145C C150A C169U, the reverse-splicing fitness was determined as 0.00329. Regarding C82G A111C A120U A145C C150A C169G, the reverse-splicing fitness was found to be 0.00326. Turning to C82G A111C A120U A145C C150A C169A, the reverse-splicing fitness is 0.00203. For C82G A111C A120U A145G C150G C169A U176C the value was 0.00861; for C82G A111C A120U A145G C150G C169A U176G, 0.00544; for C82G A111C A120U A145G C150G C169A U176A, 0.0121. For C82G A111C A120U A145U C150G C169U U176A the value was 0.00309; for C82G A111C A120U A145U C150G C169U U176C, 0.00292; for C82G A111C A120U A145U C150G C169U U176G, 0.00234.

Turning to C82G A111C A120U C150U C169U U176C, the reverse-splicing fitness is 0.00485. Then C82G A111C A120U C150U C169U U176A, with 0.00688; and C82G A111C A120U C150U C169U U176G, with 0.0024. For C82G A111C A120G C150A U176A the value was 0.014.

As to C82G A111C A120G C150A U176C, the reverse-splicing fitness was 0.0193. Then C82G A111C A120G C150A U176G, with 0.0081; and C82G A111C A120U A145C C150U U176C, with 0.00491; and C82G A111C A120U A145C C150U U176G, with 0.00325. In the case of C82G A111C A120U A145C C150U U176A, the reverse-splicing fitness is 0.00523.

As for C82G A111C A120U A145G C150G C169G U176A, the reverse-splicing fitness came out at 0.00983.

In the case of C82G A111C A120U A145G C150G C169G U176G, the reverse-splicing fitness was found to be 0.00427.

In the case of C82G A111C A120U A145G C150G C169G U176C, the reverse-splicing fitness was determined as 0.00829. Take C82G A111C A120U A145G C150U: the reverse-splicing fitness was determined as 0.0408. For C82G A111C A120U A145G C150A the value was 0.0106; for C82G A111C A120U A145G C150G, 0.0111; for C82G A111C A120U C150A C169U U176G, 0.00298. Then C82G A111C A120U C150A C169U U176C, with 0.00469; and C82G A111C A120U C150A C169U U176A, with 0.00691. Then C82G A111C A120U A145G C150A C169U U176G, with 0.00259. For the variant C82G A111C A120U A145G C150A C169U U176C, the reverse-splicing fitness came to 0.00449. As for C82G A111C A120U A145G C150A C169U U176A, the reverse-splicing fitness turned out to be 0.00632. Then C82G A111C A120U C150G C169A U176A, with 0.00878; and C82G A111C A120U C150G C169A U176C, with 0.0071. Regarding C82G A111C A120U C150G C169A U176G, the reverse-splicing fitness was 0.00331. Then C82G A111C A120U A145G C150U C169U U176A, with 0.00549. With C82G A111C A120U A145G C150U C169U U176C, the reverse-splicing fitness was found to be 0.00492. C82G A111C A120U A145G C150U C169U U176G: the reverse-splicing fitness worked out at 0.00262. Then C82G A111C A120U C150G C169G U176A, with 0.0049; and C82G A111C A120U C150G C169G U176C, with 0.00379; and C82G A111C A120U C150G C169G U176G, with 0.00302.

As to C82G A111C A120U A145G C150G C169U U176A, the reverse-splicing fitness is 0.00988.

Take C82G A111C A120U A145G C150G C169U U176G: the reverse-splicing fitness was found to be 0.00438. Turning to C82G A111C A120U A145G C150G C169U U176C, the reverse-splicing fitness came out at 0.00748. For C82G A111C A120G C150U C169G the value was 0.0113; for C82G A111C A120G C150U C169A, 0.0111.

These data come from the RNAGym collection of RNA variant scans (doi:10.1093/molbev/msab373).
